Numbered stars: 1 amine (or outer) side, 2 acyl side, 3 side chain; on linkers, the order of the positions; unused ones are H or OH. Square brackets hold non-standard residues; d marks the D form. Side chains are listed from the residue outwards. Ends that are not written are not given here. * marks the point of attachment. C20 diacid = O=C(O)CCCCCCCCCCCCCCCCCCC(=O)*; C18 diacid = O=C(O)CCCCCCCCCCCCCCCCC(=O)*; γGlu = O=C(O)[C@H](CCC(=O)[*:2])N[*:1]; AEEA = NCCOCCOCC(=O)O; Aib = CC(C)(N)C(=O)O
T1: human GIP receptor (human, UniProt P48546 22-466)
T1 construct: whole, on cells; also called hGIPR; hGIP-R
T1 sequence (looked up): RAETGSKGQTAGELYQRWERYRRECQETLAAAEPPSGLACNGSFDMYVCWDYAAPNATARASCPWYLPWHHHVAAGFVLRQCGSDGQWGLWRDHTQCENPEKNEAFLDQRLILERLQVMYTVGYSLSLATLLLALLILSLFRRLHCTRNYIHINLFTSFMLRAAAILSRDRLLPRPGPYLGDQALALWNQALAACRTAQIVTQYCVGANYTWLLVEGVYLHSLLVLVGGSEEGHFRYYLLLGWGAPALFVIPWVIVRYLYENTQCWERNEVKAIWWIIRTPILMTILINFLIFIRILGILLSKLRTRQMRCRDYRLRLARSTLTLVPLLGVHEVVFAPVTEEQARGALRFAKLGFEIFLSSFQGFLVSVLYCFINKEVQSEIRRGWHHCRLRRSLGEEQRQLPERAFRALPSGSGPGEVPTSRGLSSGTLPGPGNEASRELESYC


Key:
[1] = target: T2, human glucagon receptor (human, UniProt P47871 26-477); experiment: [125I]-Gcg competition SPA, hGcgR membranes
T2 construct: whole, on cells; also called hGcgR; GcgR

[2] = target: T3, human GLP-1 receptor (human, UniProt P43220 24-463); experiment: [125I]-GLP-1 competition SPA, hGLP-1R membranes
T3 construct: whole, on cells; also called hGLP-1R; hGLP1R
How it was run: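 Kᵢ values are geometric means (SEM) over replicates run on separate days, derived from IC₅₀ of four-parameter curve fits. Buffer: HEPES 25 mM pH 7.4 with CaCl₂ 2.5 mM, MgCl₂ 1 mM, bacitracin 0.1%, TWEEN-20 0.003%, EDTA-free protease inhibitors.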

[3] = target: T1, human GIP receptor; experiment: [125I]-GIP competition SPA, hGIPR membranes

T2 sequence (P47871 26-477): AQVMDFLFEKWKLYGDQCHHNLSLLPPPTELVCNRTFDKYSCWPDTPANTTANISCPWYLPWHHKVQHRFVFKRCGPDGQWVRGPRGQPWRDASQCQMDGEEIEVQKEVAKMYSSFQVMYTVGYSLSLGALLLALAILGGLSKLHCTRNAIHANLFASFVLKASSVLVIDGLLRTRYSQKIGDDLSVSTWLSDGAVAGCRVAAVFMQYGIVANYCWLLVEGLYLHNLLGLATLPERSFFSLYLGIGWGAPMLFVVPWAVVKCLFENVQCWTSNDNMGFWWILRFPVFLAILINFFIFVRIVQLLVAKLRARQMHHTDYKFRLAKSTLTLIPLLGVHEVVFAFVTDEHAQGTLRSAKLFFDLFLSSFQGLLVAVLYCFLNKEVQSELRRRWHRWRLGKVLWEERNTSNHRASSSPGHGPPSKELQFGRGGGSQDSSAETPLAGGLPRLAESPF

Row | Binder | Ki [1] | Ki [2] | Ki [3]
1 | Y[Aib]EGTFTSDYSILLDKK([AEEA-AEEA-γGlu-C18 diacid])AQ[Aib]AFIEYLIEGG-NH2 (N-terminus assumed; SMILES CC[C@H](C)[C@H](NC(=O)[C@H](CC(C)C)NC(=O)[C@H](Cc1ccc(O)cc1)NC(=O)[C@H](CCC(=O)O)NC(=O)[C@@H](NC(=O)[C@H](Cc1ccccc1)NC(=O)[C@H](C)NC(=O)C(C)(C)NC(=O)[C@H](CCC(N)=O)NC(=O)[C@H](C)NC(=O)[C@H](CCCCNC(=O)COCCOCCNC(=O)COCCOCCNC(=O)CC[C@H](NC(=O)CCCCCCCCCCCCCCCCC(=O)O)C(=O)O)NC(=O)[C@H](CCCCN)NC(=O)[C@H](CC(=O)O)NC(=O)[C@H](CC(C)C)NC(=O)[C@H](CC(C)C)NC(=O)[C@@H](NC(=O)[C@H](CO)NC(=O)[C@H](Cc1ccc(O)cc1)NC(=O)[C@H](CC(=O)O)NC(=O)[C@H](CO)NC(=O)[C@@H](NC(=O)[C@H](Cc1ccccc1)NC(=O)[C@@H](NC(=O)CNC(=O)[C@H](CCC(=O)O)NC(=O)C(C)(C)NC(=O)[C@@H](N)Cc1ccc(O)cc1)[C@@H](C)O)[C@@H](C)O)[C@@H](C)CC)[C@@H](C)CC)C(=O)N[C@@H](CCC(=O)O)C(=O)NCC(=O)NCC(N)=O) [Example 267] | 349 nM | 1.57 nM | 0.0628 nM
2 | Y[Aib]EGTFTSDYSILLDKK([AEEA-AEEA-γGlu-C18 diacid])AQ[Aib]AFIEYLIAGGPSSG-NH2 (N-terminus assumed; SMILES CC[C@H](C)[C@H](NC(=O)[C@H](CC(C)C)NC(=O)[C@H](Cc1ccc(O)cc1)NC(=O)[C@H](CCC(=O)O)NC(=O)[C@@H](NC(=O)[C@H](Cc1ccccc1)NC(=O)[C@H](C)NC(=O)C(C)(C)NC(=O)[C@H](CCC(N)=O)NC(=O)[C@H](C)NC(=O)[C@H](CCCCNC(=O)COCCOCCNC(=O)COCCOCCNC(=O)CC[C@H](NC(=O)CCCCCCCCCCCCCCCCC(=O)O)C(=O)O)NC(=O)[C@H](CCCCN)NC(=O)[C@H](CC(=O)O)NC(=O)[C@H](CC(C)C)NC(=O)[C@H](CC(C)C)NC(=O)[C@@H](NC(=O)[C@H](CO)NC(=O)[C@H](Cc1ccc(O)cc1)NC(=O)[C@H](CC(=O)O)NC(=O)[C@H](CO)NC(=O)[C@@H](NC(=O)[C@H](Cc1ccccc1)NC(=O)[C@@H](NC(=O)CNC(=O)[C@H](CCC(=O)O)NC(=O)C(C)(C)NC(=O)[C@@H](N)Cc1ccc(O)cc1)[C@@H](C)O)[C@@H](C)O)[C@@H](C)CC)[C@@H](C)CC)C(=O)N[C@@H](C)C(=O)NCC(=O)NCC(=O)N1CCC[C@H]1C(=O)N[C@@H](CO)C(=O)N[C@@H](CO)C(=O)NCC(N)=O) [Example 272] | 550 nM | 1.22 nM | 0.0353 nM
3 | Y[Aib]EGTFTSDYSILLDKK([AEEA-AEEA-γGlu-C18 diacid])AQ[Aib]TFIEYLIEGGPSSG-NH2 (N-terminus assumed; SMILES CC[C@H](C)[C@H](NC(=O)[C@H](CC(C)C)NC(=O)[C@H](Cc1ccc(O)cc1)NC(=O)[C@H](CCC(=O)O)NC(=O)[C@@H](NC(=O)[C@H](Cc1ccccc1)NC(=O)[C@@H](NC(=O)C(C)(C)NC(=O)[C@H](CCC(N)=O)NC(=O)[C@H](C)NC(=O)[C@H](CCCCNC(=O)COCCOCCNC(=O)COCCOCCNC(=O)CC[C@H](NC(=O)CCCCCCCCCCCCCCCCC(=O)O)C(=O)O)NC(=O)[C@H](CCCCN)NC(=O)[C@H](CC(=O)O)NC(=O)[C@H](CC(C)C)NC(=O)[C@H](CC(C)C)NC(=O)[C@@H](NC(=O)[C@H](CO)NC(=O)[C@H](Cc1ccc(O)cc1)NC(=O)[C@H](CC(=O)O)NC(=O)[C@H](CO)NC(=O)[C@@H](NC(=O)[C@H](Cc1ccccc1)NC(=O)[C@@H](NC(=O)CNC(=O)[C@H](CCC(=O)O)NC(=O)C(C)(C)NC(=O)[C@@H](N)Cc1ccc(O)cc1)[C@@H](C)O)[C@@H](C)O)[C@@H](C)CC)[C@@H](C)O)[C@@H](C)CC)C(=O)N[C@@H](CCC(=O)O)C(=O)NCC(=O)NCC(=O)N1CCC[C@H]1C(=O)N[C@@H](CO)C(=O)N[C@@H](CO)C(=O)NCC(N)=O) [Example 321] | 770 nM | 4.2 nM | 0.064 nM
4 | Y[Aib]EGTFTSDYSILLDKK([AEEA-AEEA-γGlu-C20 diacid])AQ[Aib]AFIEYLIAGGPSSG-NH2 (N-terminus assumed; SMILES CC[C@H](C)[C@H](NC(=O)[C@H](CC(C)C)NC(=O)[C@H](Cc1ccc(O)cc1)NC(=O)[C@H](CCC(=O)O)NC(=O)[C@@H](NC(=O)[C@H](Cc1ccccc1)NC(=O)[C@H](C)NC(=O)C(C)(C)NC(=O)[C@H](CCC(N)=O)NC(=O)[C@H](C)NC(=O)[C@H](CCCCNC(=O)COCCOCCNC(=O)COCCOCCNC(=O)CC[C@H](NC(=O)CCCCCCCCCCCCCCCCCCC(=O)O)C(=O)O)NC(=O)[C@H](CCCCN)NC(=O)[C@H](CC(=O)O)NC(=O)[C@H](CC(C)C)NC(=O)[C@H](CC(C)C)NC(=O)[C@@H](NC(=O)[C@H](CO)NC(=O)[C@H](Cc1ccc(O)cc1)NC(=O)[C@H](CC(=O)O)NC(=O)[C@H](CO)NC(=O)[C@@H](NC(=O)[C@H](Cc1ccccc1)NC(=O)[C@@H](NC(=O)CNC(=O)[C@H](CCC(=O)O)NC(=O)C(C)(C)NC(=O)[C@@H](N)Cc1ccc(O)cc1)[C@@H](C)O)[C@@H](C)O)[C@@H](C)CC)[C@@H](C)CC)C(=O)N[C@@H](C)C(=O)NCC(=O)NCC(=O)N1CCC[C@H]1C(=O)N[C@@H](CO)C(=O)N[C@@H](CO)C(=O)NCC(N)=O) [Example 317] | 253 nM | 2.63 nM | 0.0215 nM
5 | Y[Aib]EGTFTSDYSILLDKK([AEEA-AEEA-γGlu-C20 diacid])AQ[Aib]EFIEYLIAGGPSSG-NH2 (N-terminus assumed; SMILES CC[C@H](C)[C@H](NC(=O)[C@H](CC(C)C)NC(=O)[C@H](Cc1ccc(O)cc1)NC(=O)[C@H](CCC(=O)O)NC(=O)[C@@H](NC(=O)[C@H](Cc1ccccc1)NC(=O)[C@H](CCC(=O)O)NC(=O)C(C)(C)NC(=O)[C@H](CCC(N)=O)NC(=O)[C@H](C)NC(=O)[C@H](CCCCNC(=O)COCCOCCNC(=O)COCCOCCNC(=O)CC[C@H](NC(=O)CCCCCCCCCCCCCCCCCCC(=O)O)C(=O)O)NC(=O)[C@H](CCCCN)NC(=O)[C@H](CC(=O)O)NC(=O)[C@H](CC(C)C)NC(=O)[C@H](CC(C)C)NC(=O)[C@@H](NC(=O)[C@H](CO)NC(=O)[C@H](Cc1ccc(O)cc1)NC(=O)[C@H](CC(=O)O)NC(=O)[C@H](CO)NC(=O)[C@@H](NC(=O)[C@H](Cc1ccccc1)NC(=O)[C@@H](NC(=O)CNC(=O)[C@H](CCC(=O)O)NC(=O)C(C)(C)NC(=O)[C@@H](N)Cc1ccc(O)cc1)[C@@H](C)O)[C@@H](C)O)[C@@H](C)CC)[C@@H](C)CC)C(=O)N[C@@H](C)C(=O)NCC(=O)NCC(=O)N1CCC[C@H]1C(=O)N[C@@H](CO)C(=O)N[C@@H](CO)C(=O)NCC(N)=O) [Example 318] | 730 nM | 7.52 nM | 0.0452 nM
6 | Y[Aib]EGTFTSDYSILLDKK([AEEA-AEEA-γGlu-C18 diacid])AQ[Aib]HFIEYLIEGGPSSG-NH2 (N-terminus assumed; SMILES CC[C@H](C)[C@H](NC(=O)[C@H](CC(C)C)NC(=O)[C@H](Cc1ccc(O)cc1)NC(=O)[C@H](CCC(=O)O)NC(=O)[C@@H](NC(=O)[C@H](Cc1ccccc1)NC(=O)[C@H](Cc1c[nH]cn1)NC(=O)C(C)(C)NC(=O)[C@H](CCC(N)=O)NC(=O)[C@H](C)NC(=O)[C@H](CCCCNC(=O)COCCOCCNC(=O)COCCOCCNC(=O)CC[C@H](NC(=O)CCCCCCCCCCCCCCCCC(=O)O)C(=O)O)NC(=O)[C@H](CCCCN)NC(=O)[C@H](CC(=O)O)NC(=O)[C@H](CC(C)C)NC(=O)[C@H](CC(C)C)NC(=O)[C@@H](NC(=O)[C@H](CO)NC(=O)[C@H](Cc1ccc(O)cc1)NC(=O)[C@H](CC(=O)O)NC(=O)[C@H](CO)NC(=O)[C@@H](NC(=O)[C@H](Cc1ccccc1)NC(=O)[C@@H](NC(=O)CNC(=O)[C@H](CCC(=O)O)NC(=O)C(C)(C)NC(=O)[C@@H](N)Cc1ccc(O)cc1)[C@@H](C)O)[C@@H](C)O)[C@@H](C)CC)[C@@H](C)CC)C(=O)N[C@@H](CCC(=O)O)C(=O)NCC(=O)NCC(=O)N1CCC[C@H]1C(=O)N[C@@H](CO)C(=O)N[C@@H](CO)C(=O)NCC(N)=O) [Example 322] | 1030 nM | 2.31 nM | 0.175 nM
